Patent US10294487B2, “Methods and compositions involving ALS variants with native substrate preference” (E I DU PONT DE NEMOURS AND COMPANY, priority 2012, dated 2019)
Residue numbers refer to the chain shown, from its start. In names and notes the source's numbering stands.

B1: GM-ALS_P178A_W555L: highly resistant allele (HRA) double mutant of Glycine max ALS1: P→A at 178 and W→L at 555 (protein)
chain: MAATASRTTRFSSSSSHPTFPKRITRSTLPLSHQTLTKPNHALKIKCSISKPPTAAPFTKEAPTTEPFVSRFASGEPRKGADILVEALERQGVTTVFAYPGGASMEIHQALTRSAAIRNVLPRHEQGGVFAAEGYARSSGLPGVCIATSGPGATNLVSGLADALMDSVPVVAITGQVARRMIGTDAFQETPIVEVSRSITKHNYLILDVDDIPRVVAEAFFVATSGRPGPVLIDIPKDVQQQLAVPNWDEPVNLPGYLARLPRPPAEAQLEHIVRLIMEAQKPVLYVGGGSLNSSAELRRFVELTGIPVASTLMGLGTFPIGDEYSLQMLGMHGTVYANYAVDNSDLLLAFGVRFDDRVTGKLEAFASRAKIVHIDIDSAEIGKNKQAHVSVCADLKLALKGINMILEEKGVEGKFDLGGWREEINVQKHKFPLGYKTFQDAISPQHAIEVLDELTNGDAIVSTGVGQHQMWAAQFYKYKRPRQWLTSGGLGAMGFGLPAAIGAAVANPGAVVVDIDGDGSFIMNVQELATIRVENLPVKILLLNNQHLGMVVQLEDRFYKSNRAHTYLGDPSSESEIFPNMLKFADACGIPAARVTKKEELRAAIQRMLDTPGPYLLDVIVPHQEHVLPMIPSNGSFKDVITEGDGRTRY
modifications: ALS1 variant P178A W555L
B2: GM-ALS_G102S_P178S: Glycine Max ALS1 with G→S at position 102 and P→S at position 178 (protein)
chain: B1 chain with G102S, A178S, L555W
modifications: ALS1 variant G102S P178S
B3: GM-ALS_G102S_D357E: Glycine Max ALS1 with G→S at position 102 and D→E at position 357 (protein)
chain: B1 chain with G102S, A178P, D357E, L555W
modifications: ALS1 variant G102S D357E
B4: GM-ALS_A103T_P178S_D357E: Glycine Max ALS1 with A→T at 103, P→S at 178 and D→E at 357 (protein)
chain: B1 chain with A103T, A178S, D357E, L555W
modifications: ALS1 variant A103T P178S D357E
B5: GM-ALS_A103T_P178S: Glycine Max ALS1 with A→T at position 103 and P→S at position 178 (protein)
chain: B1 chain with A103T, A178S, L555W
modifications: ALS1 variant A103T P178S
B6: GM-ALS_G102S: Glycine Max ALS1 variant with a G→S mutation at position 102 (protein)
chain: B1 chain with G102S, A178P, L555W
modifications: ALS1 variant G102S
B7: GM-ALS_P178S_D357E: Glycine Max ALS1 with P→S at position 178 and D→E at position 357 (protein)
chain: B1 chain with A178S, D357E, L555W
modifications: ALS1 variant P178S D357E
B8: GM-ALS_P178S: Glycine Max ALS1 variant with a P→S mutation at position 178 (protein)
chain: B1 chain with A178S, L555W
modifications: ALS1 variant P178S

system: G. max ALS1 protein; assay: Colorimetric ALS kinetic assay (Km, kcat) with pyruvate as substrate; format: biochemical, Glycine max; details: not given
Description: A survey of known ALS (AcetoLactate Synthase) gene variants (Table 2) was performed, and a number of ALS variants were selected for kinetic evaluation based on breadth and strength of insensitivity to ALS-inhibitor herbicides as well as kinetic activity parameters including the ratio of substrate preferences. The selected ALS gene variants (Table 3) were generated by PCR mediated site-directed mutagenesis. Finnzymes PHUSION® DNA polymerase (Cat. No. F-530S) was used for the PCR reactions, following the instructions for recommended temperatures and cycles in the PHUSION® protocol. Some mutagenesis reactions were assisted by the use of IN-FUSION® enzyme (Clontech Cat. No. 639620) to circularize a linear plasmid with the mutation located within the 15 nucleotide overlapping ends, via recombination following the manufacturer's protocol for primer design and reaction conditions. The ALS genes, beginning with encoded amino acids SISK, (S48 to K51 in the G. max ALS1 protein (SEQ ID NO:1) corresponding to the mature protein N-terminus of the chloroplast localized enzyme), were cloned into the PMAL® E. coli expression vector (New England Biolabs) to express ALS as a fusion protein with a Maltose-Binding Protein (MBP) at the N-terminus with a thrombin site for cleavage and a His-6 tag for affinity purification. All in vitro protein characterization described in the examples was carried out with the isolated proteins after cleavage from the His-MBP fusion partner.
Km and Kcat determinations for recombinant ALS variants (with respect to pyruvate as the substrate) were performed using a colorimetric assay. ALS assays were carried out in 96-well microplates with 150 ul reaction containing 25 mM potassium phosphate, 0.2 mg/ml BSA, 15 mM MgCl2, 0.7 mM TPP, 28 uM FAD and 0-100 mM sodium pyruvate. Reactions were initiated by the addition of ALS enzyme to a final amount of 0.8 ug/well. Parameters for Km and Vmax were determined by fitting the velocity versus substrate concentration data to a rectangular hyperbola using GraphPad Prism software. Kcat values were determined from Vmax based on protein concentration in the reactions.

First: B1
Second: B2
The Km of the first is 3-fold higher: 15 mM for the first, 5 mM for the second.

First: B3
Second: B4
The Km of the first is 2.6-fold lower: 8 mM for the first, 21 mM for the second.

Going from B5 to B6, the Km falls from 10 mM to 3.5 mM (2.9-fold).

Compared with B7, B8 is 3.8-fold lower in Km: 6 mM for the first, 1.6 mM for the second.

B1 and B2 are within 1.5-fold of each other in kcat: 1.5 s⁻¹ for the first, 1.47 s⁻¹ for the second.

Going from B3 to B4, the kcat falls from 1.75 s⁻¹ to 1.05 s⁻¹ (1.7-fold).

Compared with B5, B6 is 1.6-fold lower in kcat: 2.08 s⁻¹ for the first, 1.33 s⁻¹ for the second.

Compared with B7, B8 is 2.8-fold lower in kcat: 3.17 s⁻¹ for the first, 1.15 s⁻¹ for the second.

system: G. max ALS1 protein; assay: Substrate specificity ratio (Rf), pyruvate versus 2-ketobutyrate, LC-MS of reduced products; format: biochemical, Glycine max; details: ratio of [pyruvate] to [2-ketobutyrate] giving equal rates of acetolactate and acetohydroxybutyrate formation; 25 mM pyruvate
Text: The “substrate specificity ratio”, or “Rf”, characterizes the specificity of the ALS enzyme for AHB formation relative to AL formation (Gollop et al. (1989) Biochemistry 28:6310-6317). Rf is the ratio of [pyruvate] to [2-ketobutyrate] that results in equal rates of formation of acetolactate and acetohydroxybutyrate. Rf is a constant at all substrate concentrations. The substrate specificity ratio is ˜114 for the wild type Glycine max ALS1 enzyme (SEQ ID NO:1) compared to ˜3 for the highly resistant allele (HRA) double mutant variant (SEQ ID NO: 10) of the Glycine max ALS1. The soybean HRA sequence is disclosed, for example, in WO2007/024782, herein incorporated by reference.
Substrate preference was determined using the assay described in Example 3; however, the assay was conducted using a constant concentration of pyruvate (25 mM) and varying concentrations of the second substrate, 2-ketobutyrate. Each reaction involving a specific ratio of pyruvate to 2-ketobutyrate, after a set period of time, was quenched by addition of sodium borohydride (7-fold excess) to form the reduced adducts of the products of the two substrates namely; reduced acetolactate for the reaction with pyruvate and reduced aceto hydroxybutyrate for the 2-ketobutyrate reaction. The relative amounts of the two reduced products was determined by first, chromatographic separation using a 4.6×250 mm dC18 column (Atlantis) equilibrated with a 0.1% formic acid solution and subsequent elution using a methanol gradient at 0.7 ml/min, followed by detection using a Thermo FINNIGAN® LTQ® Mass Spectrometer (MS). The products of the two reactions were quantified by integration of the MS signals. The % of the amount of each of the reduced products was then plotted versus the concentration of 2-ketobutyrate. As the 2-ketobutyrate amount increased there was a consequent increase in reduced acetohydroxybutyrate (AHB) and decrease in reduced acetolactate (AL). […] The substrate specificity ratio was ˜114 for the wild type enzyme compared to 3 for the highly resistant allele (HRA) double mutant ALS variant (SEQ ID NO: 10).

First: B1
Second: B2
The “Substrate specificity ratio (Rf)” value of the first is lower: 2.9 for the first, 12.0 for the second.

First: B3
Second: B4
The “Substrate specificity ratio (Rf)” value of the first is lower: 16.9 for the first, 114.0 for the second.

Going from B5 to B6, the “Substrate specificity ratio (Rf)” value falls from 75.0 to 10.2.

Compared with B7, B8 is higher in “Substrate specificity ratio (Rf)” value: 100.0 for the first, 104.0 for the second.

same assay, conditions: ratio of [pyruvate] to [2-ketobutyrate] giving equal rates of acetolactate and acetohydroxybutyrate formation; 25 mM pyruvate; listed as HRA

For B1, the “Substrate specificity ratio (Rf)” value was 3.
